This note sets out measurements from article PMC8571087, “Sphingadienine-1-phosphate levels are regulated by a novel glycoside hydrolase family 1 glucocerebrosidase widely distributed in seed plants” (The Journal of Biological Chemistry, 2021).

Substrate in data set [1]: CCCCCCCCCCCC/C=C/[C@@H](O)C(=O)N[C@@H](CO[C@@H]1O[C@H](CO)[C@@H](O)[C@H](O)[C@H]1O)[C@H](O)/C=C/CC/C=C(\C)CCCCCCCCC
Kind of data set: ceramide release by HPLC, Hanes-Woolf plot. The class given is biochemical, Oryza sativa. To be noted: Buffer J pH 5.5 (sodium acetate, sodium cholate, 0.1% Tween 20), 37 °C, 15 min. The text has this: (§1) ceramide release by HPLC, Hanes-Woolf plot on Os3BGlu6 (GCase purified from rice leaves)

Substrate in data set [2]: CCCCCCCCCCCCC/C=C/[C@@H](O)[C@H](CO[C@@H]1O[C@H](CO)[C@@H](O)[C@H](O)[C@H]1O)NC(=O)CCCCCCC
The data set can be described thus: ceramide release by HPLC, Hanes-Woolf plot. To be noted: Buffer J pH 5.5 (sodium acetate, sodium cholate, 0.1% Tween 20), 37 °C, 15 min. Type of data set: biochemical, Oryza sativa.
Description: as §1

Substrate in data set [3]: CCCCCCCCCCCCC/C=C/[C@@H](O)[C@H](CO[C@@H]1O[C@H](CO)[C@@H](O)[C@H](O)[C@H]1O)NC(=O)CCCCCCCCCCC
The data set can be described thus: ceramide release by HPLC, Hanes-Woolf plot. Type of data set: biochemical, Oryza sativa. The note with it: Buffer J pH 5.5 (sodium acetate, sodium cholate, 0.1% Tween 20), 37 °C, 15 min.
Description: as §1

Substrate in data set [4]: CCCCCCCCCCCCC/C=C/[C@@H](O)[C@H](CO[C@@H]1O[C@H](CO)[C@@H](O)[C@H](O)[C@H]1O)NC(=O)CCCCCNc1ccc([N+](=O)[O-])c2nonc12
Kind of data set: hydrolysis, Hanes-Woolf plot. Type of data set: biochemical, Oryza sativa. The note with it: Buffer J pH 5.5 (sodium acetate, sodium cholate, 0.1% Tween 20), 37 °C, 15 min, labelled compound (NBD).

Substrate in data set [5]: CCCCCCCCC/C=C/CC/C=C/[C@@H](O)[C@H](CO[C@@H]1O[C@H](CO)[C@@H](O)[C@H](O)[C@H]1O)NC(=O)[C@H](O)CCCCCCCCCCCCCC
Kind of data set: ceramide release by LC-ESI-MS/MS, Hanes-Woolf plot. Type of data set: biochemical, Oryza sativa. The note with it: Buffer J pH 5.5 (sodium acetate, sodium cholate, 0.1% Tween 20), 37 °C, 15 min. The text has this:
(§2) ceramide release by LC-ESI-MS/MS, Hanes-Woolf plot on Os3BGlu6 (GCase purified from rice leaves)

Substrate in data set [6]: CCCCCCCCC/C=C\CC/C=C/[C@@H](O)[C@H](CO[C@@H]1O[C@H](CO)[C@@H](O)[C@H](O)[C@H]1O)NC(=O)[C@H](O)CCCCCCCCCCCCCC
Kind of data set: ceramide release by LC-ESI-MS/MS, Hanes-Woolf plot. The class given is biochemical, Oryza sativa. To be noted: Buffer J pH 5.5 (sodium acetate, sodium cholate, 0.1% Tween 20), 37 °C, 15 min.
Description: as §2

Substrate in the data set “purified protein”: O=[N+]([O-])c1ccc(O[C@@H]2O[C@H](CO)[C@@H](O)[C@H](O)[C@H]2O)cc1
The data set can be described thus: purified protein. To be noted: Buffer J pH 5.5 (sodium acetate, sodium cholate, 0.1% Tween 20), 37 °C, 15 min.

B1: Os3BGlu6 (GCase purified from rice leaves) (Oryza sativa Japonica Group) (protein)
chain: QQSGGGLTRGSFPEGFVFGTASAAYQYEGAVKEDGRGQTIWDTFAHTFGKITDFSNADVAVDQYHRFEEDIQLMADMGMDAYRFSIAWSRIYPNGVGQVNQAGIDHYNKLIDALLAKGIQPYVTLYHWDLPQALEDKYKGWLDRQIVDDFAAYAETCFREFGDRVKHWITLNEPHTVAIQGYDAGLQAPGRCSVLLHLYCKAGNSGTEPYVVAHHFILAHAAAASIYRTKYKATQNGQLGIAFDVMWFEPMSNTTIDIEAAKRAQEFQLGWFADPFFFGDYPATMRARVGERLPRFTADEAAVVKGALDFVGINHYTTYYTRHNNTNIIGTLLNNTLADTGTVSLPFKNGKPIGDRANSIWLYIVPRGMRSLMNYVKERYNSPPVYITENGMDDSNNPFISIKDALKDSKRIKYHNDYLTNLAASIKEDGCDVRGYFAWSLLDNWEWAAGYSSRFGLYFVDYKDNLKRYPKNSVQWFKALLKT
In the case of B1, the Michaelis constant (Km) in data set [1] amounted to 41.1 ± 4.3 µM; in data set [2] it was 47.5 ± 3.8 µM; in data set [3], 46.1 ± 5.1 µM; in data set [4], 57.1 ± 7.9 µM; in data set [5] it was 50.0 ± 2.4 µM; in data set [6], 19.8 ± 0.8 µM. For the same protein, the Km in the data set “purified protein” turned out to be 3825.3 ± 201.2 µM. In addition, the catalytic constant (kcat) in data set [1] amounted to 151 ± 9.1 s⁻¹; in data set [2] it was 156 ± 8.6 s⁻¹; in data set [3] it was 121 ± 4.4 s⁻¹; in data set [4], 112 ± 11.8 s⁻¹; in data set [5] it was 146 ± 4.7 s⁻¹; in data set [6] it was 116 ± 2.9 s⁻¹. For the same protein, the turnover number (kcat) in the data set “purified protein” stood at 285 s⁻¹. The kcat/Km in data set [1] stood at 3.7e+06 ± 280000 M⁻¹ s⁻¹; in data set [2], 3.29e+06 ± 150000 M⁻¹ s⁻¹; in data set [3], 2.64e+06 ± 190000 M⁻¹ s⁻¹; in data set [4] it was 1.97e+06 ± 120000 M⁻¹ s⁻¹; in data set [5] it was 2.92e+06 ± 50000 M⁻¹ s⁻¹; in data set [6], 5.85e+06 ± 190000 M⁻¹ s⁻¹. Besides, the kcat/Km in the data set “purified protein” was 75000 M⁻¹ s⁻¹.
